Among the data in paper PMC8287548 are Kd and conjugation efficiency values, retold here.

For experiment [1], the target named is SpyCatcher-HPF (not stated | Helicobacter pylori). In words: SPR. A general note: Surface plasmon resonance follows binding to a sensor surface in real time, without labels.
The target is the same in experiment [2]. The experiment is described as follows: covalent conjugation.

Some results are limits rather than exact numbers.

The Kd is the equilibrium constant for the complex coming apart. Higher therefore signals lower affinity.

The substance “SpyTag-RBD (from UniProt P0DTC2 319-541)” registered a Kd in experiment [1] of 2680 nM. This substance also gave a conjugation efficiency in experiment [2] of less than 40%.
